Test results taken from patent publication US20150196651A1 (published 2015).
Numbered stars: 1 amine (or outer) side, 2 acyl side, 3 side chain; on linkers, the order of the positions; unused ones are H or OH. Square brackets hold non-standard residues; d marks the D form. Side chains are listed from the residue outwards. Ends that are not written are not given here. * marks the point of attachment. γGlu = O=C(O)[C@H](CCC(=O)[*:2])N[*:1]; Palmitoyl = CCCCCCCCCCCCCCCC(=O)*; Myristoyl = CCCCCCCCCCCCCC(=O)*; Lauroyl = CCCCCCCCCCCC(=O)*; Decanoyl = CCCCCCCCCC(=O)*; Nle = CCCC[C@H](N)C(=O)O; Octanoyl = CCCCCCCC(=O)*; GABA = NCCCC(=O)O

T1: rat PrRP receptor in RC-4B/C cells (rat, UniProt Q64121 1-370)
T1 construct: whole, on cells; endogenous receptor of RC-4B/C cells (ATCC); also called rat receptor; GPR10 receptor expressed in rat hypophyseal cells
T1 sequence (looked up): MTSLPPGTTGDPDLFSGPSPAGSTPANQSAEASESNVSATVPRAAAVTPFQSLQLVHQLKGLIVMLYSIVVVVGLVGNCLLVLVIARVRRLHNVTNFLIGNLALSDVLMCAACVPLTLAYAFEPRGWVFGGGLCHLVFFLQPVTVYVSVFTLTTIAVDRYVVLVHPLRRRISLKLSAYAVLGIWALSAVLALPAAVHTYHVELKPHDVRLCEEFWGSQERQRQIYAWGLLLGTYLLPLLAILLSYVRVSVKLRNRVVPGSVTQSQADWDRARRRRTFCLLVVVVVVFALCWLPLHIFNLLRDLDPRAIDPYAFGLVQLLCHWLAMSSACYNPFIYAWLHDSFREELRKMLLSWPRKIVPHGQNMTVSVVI

T2: human PrRP receptor GPR10 (human, UniProt P49683 1-370)
T2 construct: whole, on cells; also called GPR10 human receptor transfected in CHO cells; human GPR10 receptor
T2 sequence (looked up): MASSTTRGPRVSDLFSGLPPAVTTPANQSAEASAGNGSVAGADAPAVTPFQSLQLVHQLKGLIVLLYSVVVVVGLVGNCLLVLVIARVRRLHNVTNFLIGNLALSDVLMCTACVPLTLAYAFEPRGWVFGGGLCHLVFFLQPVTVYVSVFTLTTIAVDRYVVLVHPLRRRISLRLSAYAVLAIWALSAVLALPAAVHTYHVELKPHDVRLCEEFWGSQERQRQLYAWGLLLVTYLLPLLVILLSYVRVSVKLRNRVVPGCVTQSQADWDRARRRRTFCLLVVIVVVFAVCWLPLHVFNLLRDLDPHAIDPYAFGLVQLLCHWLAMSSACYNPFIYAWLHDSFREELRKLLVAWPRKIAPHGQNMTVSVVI

B1: analog no. 40 (peptide)
peptide: Decanoyl-TPDINPAWYASRGIRPVGRF-NH2
SMILES: CCCCCCCCCC(=O)N[C@H](C(=O)N1CCC[C@H]1C(=O)N[C@@H](CC(=O)O)C(=O)N[C@H](C(=O)N[C@@H](CC(N)=O)C(=O)N1CCC[C@H]1C(=O)N[C@@H](C)C(=O)N[C@@H](Cc1c[nH]c2ccccc12)C(=O)N[C@@H](Cc1ccc(O)cc1)C(=O)N[C@@H](C)C(=O)N[C@@H](CO)C(=O)N[C@@H](CCCNC(=N)N)C(=O)NCC(=O)N[C@H](C(=O)N[C@@H](CCCNC(=N)N)C(=O)N1CCC[C@H]1C(=O)N[C@H](C(=O)NCC(=O)N[C@@H](CCCNC(=N)N)C(=O)N[C@@H](Cc1ccccc1)C(N)=O)C(C)C)[C@@H](C)CC)[C@@H](C)CC)[C@@H](C)O
B2: analog no. 39 (peptide)
peptide: Octanoyl-TPDINPAWYASRGIRPVGRF-NH2
SMILES: CCCCCCCC(=O)N[C@H](C(=O)N1CCC[C@H]1C(=O)N[C@@H](CC(=O)O)C(=O)N[C@H](C(=O)N[C@@H](CC(N)=O)C(=O)N1CCC[C@H]1C(=O)N[C@@H](C)C(=O)N[C@@H](Cc1c[nH]c2ccccc12)C(=O)N[C@@H](Cc1ccc(O)cc1)C(=O)N[C@@H](C)C(=O)N[C@@H](CO)C(=O)N[C@@H](CCCNC(=N)N)C(=O)NCC(=O)N[C@H](C(=O)N[C@@H](CCCNC(=N)N)C(=O)N1CCC[C@H]1C(=O)N[C@H](C(=O)NCC(=O)N[C@@H](CCCNC(=N)N)C(=O)N[C@@H](Cc1ccccc1)C(N)=O)C(C)C)[C@@H](C)CC)[C@@H](C)CC)[C@@H](C)O
B3: analog no. 41 (peptide)
peptide: Lauroyl-TPDINPAWYASRGIRPVGRF-NH2
SMILES: CCCCCCCCCCCC(=O)N[C@H](C(=O)N1CCC[C@H]1C(=O)N[C@@H](CC(=O)O)C(=O)N[C@H](C(=O)N[C@@H](CC(N)=O)C(=O)N1CCC[C@H]1C(=O)N[C@@H](C)C(=O)N[C@@H](Cc1c[nH]c2ccccc12)C(=O)N[C@@H](Cc1ccc(O)cc1)C(=O)N[C@@H](C)C(=O)N[C@@H](CO)C(=O)N[C@@H](CCCNC(=N)N)C(=O)NCC(=O)N[C@H](C(=O)N[C@@H](CCCNC(=N)N)C(=O)N1CCC[C@H]1C(=O)N[C@H](C(=O)NCC(=O)N[C@@H](CCCNC(=N)N)C(=O)N[C@@H](Cc1ccccc1)C(N)=O)C(C)C)[C@@H](C)CC)[C@@H](C)CC)[C@@H](C)O
B4: analog no. 37 (peptide)
peptide: QHSMETRTPDINPAWYTGRGIRPVGRF-NH2
notes: shortened PrRP31 analog; also called 37 short
B5: analog no. 59 (peptide)
peptide: SRTHRHSMEIKTPDINPAWYASRGIRPVGRF
modifications: (N-palm(N-POE)) at the N-terminus; K(N-palm(N-POE)) at residue 11; C-terminal amide
B6: analog no. 56 (peptide)
peptide: SETHEHSMEIK([γGlu-Palmitoyl])TPDINPAWYASRGIRPVGRF-NH2
modifications: N-terminus assumed
SMILES: CCCCCCCCCCCCCCCC(=O)N[C@@H](CCC(=O)NCCCC[C@H](NC(=O)[C@@H](NC(=O)[C@H](CCC(=O)O)NC(=O)[C@H](CCSC)NC(=O)[C@H](CO)NC(=O)[C@H](Cc1c[nH]cn1)NC(=O)[C@H](CCC(=O)O)NC(=O)[C@H](Cc1c[nH]cn1)NC(=O)[C@@H](NC(=O)[C@H](CCC(=O)O)NC(=O)[C@@H](N)CO)[C@@H](C)O)[C@@H](C)CC)C(=O)N[C@H](C(=O)N1CCC[C@H]1C(=O)N[C@@H](CC(=O)O)C(=O)N[C@H](C(=O)N[C@@H](CC(N)=O)C(=O)N1CCC[C@H]1C(=O)N[C@@H](C)C(=O)N[C@@H](Cc1c[nH]c2ccccc12)C(=O)N[C@@H](Cc1ccc(O)cc1)C(=O)N[C@@H](C)C(=O)N[C@@H](CO)C(=O)N[C@@H](CCCNC(=N)N)C(=O)NCC(=O)N[C@H](C(=O)N[C@@H](CCCNC(=N)N)C(=O)N1CCC[C@H]1C(=O)N[C@H](C(=O)NCC(=O)N[C@@H](CCCNC(=N)N)C(=O)N[C@@H](Cc1ccccc1)C(N)=O)C(C)C)[C@@H](C)CC)[C@@H](C)CC)[C@@H](C)O)C(=O)O
B7: analog no. 38 (peptide)
peptide: Myristoyl-QHSMETRTPDINPAWYTGRGIRPVGRF-NH2
SMILES: CCCCCCCCCCCCCC(=O)N[C@@H](CCC(N)=O)C(=O)N[C@@H](Cc1c[nH]cn1)C(=O)N[C@@H](CO)C(=O)N[C@@H](CCSC)C(=O)N[C@@H](CCC(=O)O)C(=O)N[C@H](C(=O)N[C@@H](CCCNC(=N)N)C(=O)N[C@H](C(=O)N1CCC[C@H]1C(=O)N[C@@H](CC(=O)O)C(=O)N[C@H](C(=O)N[C@@H](CC(N)=O)C(=O)N1CCC[C@H]1C(=O)N[C@@H](C)C(=O)N[C@@H](Cc1c[nH]c2ccccc12)C(=O)N[C@@H](Cc1ccc(O)cc1)C(=O)N[C@H](C(=O)NCC(=O)N[C@@H](CCCNC(=N)N)C(=O)NCC(=O)N[C@H](C(=O)N[C@@H](CCCNC(=N)N)C(=O)N1CCC[C@H]1C(=O)N[C@H](C(=O)NCC(=O)N[C@@H](CCCNC(=N)N)C(=O)N[C@@H](Cc1ccccc1)C(N)=O)C(C)C)[C@@H](C)CC)[C@@H](C)O)[C@@H](C)CC)[C@@H](C)O)[C@@H](C)O
notes: lipidized shortened PrRP31 analog; also called 38 short
B8: analog no. 35 (peptide)
peptide: [Nle]ETRTPDINPAWYTGRGIRPVGRF-NH2
modifications: N-terminus assumed
SMILES: CCCC[C@H](N)C(=O)N[C@@H](CCC(=O)O)C(=O)N[C@H](C(=O)N[C@@H](CCCNC(=N)N)C(=O)N[C@H](C(=O)N1CCC[C@H]1C(=O)N[C@@H](CC(=O)O)C(=O)N[C@H](C(=O)N[C@@H](CC(N)=O)C(=O)N1CCC[C@H]1C(=O)N[C@@H](C)C(=O)N[C@@H](Cc1c[nH]c2ccccc12)C(=O)N[C@@H](Cc1ccc(O)cc1)C(=O)N[C@H](C(=O)NCC(=O)N[C@@H](CCCNC(=N)N)C(=O)NCC(=O)N[C@H](C(=O)N[C@@H](CCCNC(=N)N)C(=O)N1CCC[C@H]1C(=O)N[C@H](C(=O)NCC(=O)N[C@@H](CCCNC(=N)N)C(=O)N[C@@H](Cc1ccccc1)C(N)=O)C(C)C)[C@@H](C)CC)[C@@H](C)O)[C@@H](C)CC)[C@@H](C)O)[C@@H](C)O
notes: shortened PrRP31 analog; also called 35 short
B9: analog no. 36 (peptide)
peptide: Myristoyl-[Nle]ETRTPDINPAWYTGRGIRPVGRF-NH2
SMILES: CCCCCCCCCCCCCC(=O)N[C@@H](CCCC)C(=O)N[C@@H](CCC(=O)O)C(=O)N[C@H](C(=O)N[C@@H](CCCNC(=N)N)C(=O)N[C@H](C(=O)N1CCC[C@H]1C(=O)N[C@@H](CC(=O)O)C(=O)N[C@H](C(=O)N[C@@H](CC(N)=O)C(=O)N1CCC[C@H]1C(=O)N[C@@H](C)C(=O)N[C@@H](Cc1c[nH]c2ccccc12)C(=O)N[C@@H](Cc1ccc(O)cc1)C(=O)N[C@H](C(=O)NCC(=O)N[C@@H](CCCNC(=N)N)C(=O)NCC(=O)N[C@H](C(=O)N[C@@H](CCCNC(=N)N)C(=O)N1CCC[C@H]1C(=O)N[C@H](C(=O)NCC(=O)N[C@@H](CCCNC(=N)N)C(=O)N[C@@H](Cc1ccccc1)C(N)=O)C(C)C)[C@@H](C)CC)[C@@H](C)O)[C@@H](C)CC)[C@@H](C)O)[C@@H](C)O
notes: lipidized shortened PrRP31 analog; also called 36 short

molecular target: T1, rat PrRP receptor in RC-4B/C cells; assay: competition with 125I-rat PrRP31, RC-4B/C cells
Procedure, shortened: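 Incubation 60 min at room temperature; cells solubilized in 0.1 mol/l NaOH and bound radioactivity γ-counted. Run in duplicate, repeated at least three times.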

| % of PrRP31 [%] | Ki [nM] | Binder |
| --- | --- | --- |
| 1200 | 0.41 | B1 |
| 530 | 0.93 | B2 |
| 822 | 0.6 | B3 |
| 189 | 2.61 | B4 |
| 190 | 1.26 | SRTHRHSMEIK([GABA-Palmitoyl])TPDINPAWYASRGIRPVGRF-NH2 [analog no. 53] |
| 85 | 2.82 | B5 |
| 663 | 0.36 | SRTHRHSMEIKTPDINPAWYASRGIRPVGRF-NH2 (not fully specified (residue 11)) [analog no. 57] |
| 236 |  | SETHRHSMEIK([γGlu-Palmitoyl])TPDINPAWYASRGIRPVGRF-NH2 [analog no. 55] |
| 57 | 4.23 | B6 |
| 1330 | 0.37 | B7 |
| 168 | 2.94 | B8 |
| 1100 | 0.45 | B9 |
| 519 | 0.95 | Palmitoyl-SRTHRHSMEIRTPDINPAWYASRGIRPVGRF-NH2 (also called analog no; 43; compound 43) [palm-PrRP31 (analog 43)] |

molecular target: T2, human PrRP receptor GPR10; assay: competition with 125I-human PrRP31, CHO cells with human GPR10

| % of PrRP31 [%] | Ki [nM] | Binder |
| --- | --- | --- |
| 129 | 3.02 | B1 |
| 201 | 1.94 | B2 |
| 161 | 2.41 | B3 |
| 66 | 5.92 | B4 |
| 42.5 | 9.19 | SRTHRHSMEIK([GABA-Palmitoyl])TPDINPAWYASRGIRPVGRF-NH2 [analog no. 53] |
| 12 | 32.4 | B5 |
| 103 | 3.79 | SRTHRHSMEIKTPDINPAWYASRGIRPVGRF-NH2 (not fully specified (residue 11)) [analog no. 57] |
| 83 | 4.72 | SETHRHSMEIK([γGlu-Palmitoyl])TPDINPAWYASRGIRPVGRF-NH2 [analog no. 55] |
| 57 | 5.66 | B6 |
| 56 | 6.93 | B7 |
| 113 | 3.44 | B8 |
| 71 | 5.48 | B9 |
| 90 |  | Palmitoyl-SRTHRHSMEIRTPDINPAWYASRGIRPVGRF-NH2 (also called analog no; 43; compound 43) [palm-PrRP31 (analog 43)] |
